{"source": "patent US7884067B2", "about": "“Peptides derived from cadherin and methods of use thereof” (Mount Sinai School of Medicine of New York University, priority 2001, dated 2011)", "key": {"[1]": {"tested_on": "N-cadherin", "assay": "In vitro γ-secretase-like ε-cleavage assay, membranes of WT-PS1-transfected HEK293 cells", "assay_type": "biochemical, human", "details": "membranes from WT-PS1-transfected clone #7, presence of L-685,458, 37° C. 2 hours", "protocol": "In vitro γ-secretase-like ε-cleavage assay. Cells were washed in PBS, resuspended in 1 ml of 4° C. hypotonic buffer (10 mM MOPS, pH 7.0, 10 mM KCl) and homogenized on ice. A post-nuclear supernatant was prepared by centrifugation at 1000×g for 15 minutes at 4° C. Crude membranes were isolated from the post-nuclear supernatant by centrifugation at 16,000×g for 40 minutes at 4° C. The membranes were then resuspended in […] of assay buffer (150 mM sodium citrate, pH 6.4, 1× Complete protease inhibitor cocktail), and incubated at 37° C. for 2 hours. Samples were either analyzed directly by WB or separated into pellet (P100) and supernatant (S100) fractions by ultracentrifugation for 1 hour at 100,000×g at 4° C. The S100 and P100 fractions were then analyzed by WB.\nMembranes from PS1−/− (FIG. 7C, lane 1) or PS1+/+ (FIG. 7C, lanes 2-4) fibroblasts or from N2a cell cultures (FIG. 7C, lanes 5-6) incubated for 16 hours in the absence or presence of DMSO or L-685,458 ([…]), were incubated at 37° C. for 2 hours, separated by centrifugation in a pellet (P100, FIG. 7C, upper panels) and a soluble (S100, FIG. 7C, lower panels) fractions and then probed on WBs with C32 antibody. […]"}, "[2]": {"biological_target": "T1, CBP/CREB complex (Mus musculus, UniProt P45481)", "T1 construct": "full length mouse CBP inserted into vector pRc/RSV; expressed in transfected cells; host or cells: L cells transfected with mouse CBP (pRc/RSV), without or with 0.2 or 0.5 µg pN-Cad/CTF2; nuclear extract", "T1 sequence (P45481 whole entry, one chain of several)": "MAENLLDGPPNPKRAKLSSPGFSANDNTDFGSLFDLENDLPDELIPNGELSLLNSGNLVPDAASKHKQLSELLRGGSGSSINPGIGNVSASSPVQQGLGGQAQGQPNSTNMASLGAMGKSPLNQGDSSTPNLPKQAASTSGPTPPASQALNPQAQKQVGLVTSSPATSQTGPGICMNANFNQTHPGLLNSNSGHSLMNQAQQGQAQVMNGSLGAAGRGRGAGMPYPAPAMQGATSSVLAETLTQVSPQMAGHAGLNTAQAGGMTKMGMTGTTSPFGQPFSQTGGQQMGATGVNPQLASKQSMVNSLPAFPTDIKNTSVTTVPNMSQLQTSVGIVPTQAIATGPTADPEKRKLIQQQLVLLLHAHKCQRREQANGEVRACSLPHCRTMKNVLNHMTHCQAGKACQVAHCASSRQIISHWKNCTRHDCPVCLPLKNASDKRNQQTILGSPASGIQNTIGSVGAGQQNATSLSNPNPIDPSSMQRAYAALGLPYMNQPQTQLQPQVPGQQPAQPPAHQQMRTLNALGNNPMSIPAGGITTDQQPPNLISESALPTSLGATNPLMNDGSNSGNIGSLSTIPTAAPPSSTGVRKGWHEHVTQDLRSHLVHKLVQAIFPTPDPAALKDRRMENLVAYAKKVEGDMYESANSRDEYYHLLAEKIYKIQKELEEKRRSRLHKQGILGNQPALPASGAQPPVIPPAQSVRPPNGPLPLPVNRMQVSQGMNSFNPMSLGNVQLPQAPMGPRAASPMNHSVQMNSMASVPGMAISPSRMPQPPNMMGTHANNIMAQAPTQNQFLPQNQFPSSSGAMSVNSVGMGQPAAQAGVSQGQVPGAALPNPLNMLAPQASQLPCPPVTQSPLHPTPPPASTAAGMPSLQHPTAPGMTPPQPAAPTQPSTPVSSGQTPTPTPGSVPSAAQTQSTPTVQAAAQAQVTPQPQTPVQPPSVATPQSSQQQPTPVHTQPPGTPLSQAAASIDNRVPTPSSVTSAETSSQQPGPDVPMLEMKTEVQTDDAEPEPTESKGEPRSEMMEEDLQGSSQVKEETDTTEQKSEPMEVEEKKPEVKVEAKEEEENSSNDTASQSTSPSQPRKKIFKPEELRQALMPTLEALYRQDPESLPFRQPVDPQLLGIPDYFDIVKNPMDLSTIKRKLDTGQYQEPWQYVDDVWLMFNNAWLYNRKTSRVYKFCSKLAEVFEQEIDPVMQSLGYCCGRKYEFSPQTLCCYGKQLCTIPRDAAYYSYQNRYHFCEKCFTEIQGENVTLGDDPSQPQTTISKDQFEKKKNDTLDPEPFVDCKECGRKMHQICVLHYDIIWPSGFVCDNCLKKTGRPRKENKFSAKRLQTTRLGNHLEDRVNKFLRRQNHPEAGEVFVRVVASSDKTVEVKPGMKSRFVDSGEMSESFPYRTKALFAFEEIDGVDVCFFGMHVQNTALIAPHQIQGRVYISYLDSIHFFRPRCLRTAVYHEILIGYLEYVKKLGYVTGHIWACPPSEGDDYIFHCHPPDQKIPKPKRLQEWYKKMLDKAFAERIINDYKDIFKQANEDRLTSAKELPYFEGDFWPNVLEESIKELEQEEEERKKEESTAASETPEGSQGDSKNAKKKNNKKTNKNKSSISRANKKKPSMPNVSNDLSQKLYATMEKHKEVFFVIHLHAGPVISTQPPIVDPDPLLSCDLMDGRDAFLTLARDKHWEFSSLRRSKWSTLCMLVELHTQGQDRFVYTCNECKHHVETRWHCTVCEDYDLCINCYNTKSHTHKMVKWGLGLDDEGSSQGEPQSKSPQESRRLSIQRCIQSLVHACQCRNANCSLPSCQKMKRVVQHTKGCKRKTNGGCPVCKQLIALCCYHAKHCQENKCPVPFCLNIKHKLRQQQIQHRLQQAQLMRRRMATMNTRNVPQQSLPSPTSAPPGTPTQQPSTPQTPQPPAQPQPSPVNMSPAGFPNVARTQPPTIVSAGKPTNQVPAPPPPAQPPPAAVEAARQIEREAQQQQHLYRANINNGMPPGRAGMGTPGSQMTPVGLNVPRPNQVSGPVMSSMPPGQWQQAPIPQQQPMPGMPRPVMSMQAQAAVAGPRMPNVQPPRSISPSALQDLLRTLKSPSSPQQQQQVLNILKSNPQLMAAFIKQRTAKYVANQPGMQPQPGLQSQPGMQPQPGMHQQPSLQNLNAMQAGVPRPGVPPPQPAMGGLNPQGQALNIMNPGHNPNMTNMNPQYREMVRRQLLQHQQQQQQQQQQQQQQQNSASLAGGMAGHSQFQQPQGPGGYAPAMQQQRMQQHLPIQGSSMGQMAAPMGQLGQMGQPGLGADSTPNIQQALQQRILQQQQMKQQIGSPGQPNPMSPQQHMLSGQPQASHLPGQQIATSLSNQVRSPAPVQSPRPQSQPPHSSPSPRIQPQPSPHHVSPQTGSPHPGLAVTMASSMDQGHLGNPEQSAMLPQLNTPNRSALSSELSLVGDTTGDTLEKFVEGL", "assay": "Electrophoretic mobility shift assay, CREB probe", "assay_type": "biochemical", "details": "nuclear extract from cells transfected with 0.2 μg and 0.5 μg pN-Cad/CTF2, FIG. 11C lanes 6-8", "protocol": "Electrophoresis mobility shift assay (EMSA). Nuclear extract from CBP-transfected L cells were prepared using the extraction kit N-XTRACT (Sigma) according to manufacturer's instructions. Ten microgram of nuclear extract was used for EMSA performed according to manufacturer's instructions using biotinylated double-stranded oligonucleotide probes containing DNA-binding motifs for CREB or MEF-1 (Panomics). Probes are as follow: CREB, 5′-[…]-3′ (SEQ ID NO: 17); MEF-1,5′-[…]-3′ (SEQ ID NO: 18). Reaction products were separated on 6% polyacrylamide gels in cold TBE buffer (50 mM Tris-HCl, 45 mM Boric acid, 0.5 mM EDTA), transferred to nylon membranes (Immobilon-Ny+, Millipore) and bound probes were immobilized for 30 minutes at 85° C. and visualized by chemiluminescence using streptavidin-HRP conjugate. For antibody supershift analysis, nuclear extract was incubated for 3 hours at 4° C. with […] of 1 B6 antibody prior to probe addition. Where indicated, nuclear extract ([…]) was immunoprecipitated with A-22 antibody ([…]) and protein A-agarose in EBC buffer (50 mM Tris, pH 8, 120 mM NaCl, 0.5% NP40, 1× Complete protease inhibitor cocktail)."}, "[3]": {"tested_on": "CHOP-response elements", "assay": "CHOP-mediated transactivation (luciferase) in L cells", "assay_type": "cell-based", "details": "L cells transfected with pN-Cad/CTF2, FIG. 9A", "protocol": "Transactivation assays. CRE-dependent transactivation was measured in the absence or presence of overexpression of PKA (pFC-PKA, Stratagene) by cotransfection with CRE-luciferase reporter plasmid (pCRE-Luc, Stratagene) and pSV-β-galactosidase vector (Promega) to evaluate transfection efficiency. CHOP-mediated transactivation was measured by cotransfection with the Gal4-fusion trans-activator plasmids (pFA-CHOP and pFR-Luc, Stratagene). 30 hours after transfection, luciferase and β-galactosidase activities were determined following manufacturer's instructions using a TD-20/20 luminometer (Turner Designs) and a DU-64 spectrophotometer (Beckman). Values were normalized to β-galactosidase activity and protein concentration.\nStimulation of synaptic NMDA receptor leads to phosphorylation of transcription factor CREB that then recruits transcription co-activator CBP, a process ultimately leading to activation of CREB-mediated gene expression (Impey and Goodman (2001) Sci STKE, PE1). […] CRE-dependent transactivation was measured in the absence (−) or presence (+) of […] PKA (pFC-PKA) using CRE-luciferase reporter plasmid (pCRE-Luc) and pSV-β-galactosidase vector. CHOP-mediated transactivation was measured by […] with the Gal4-fusion trans-activator plasmids (pFA-CHOP and pFR-Luc) and pSV-β-galactosidase vector. […]"}}, "data": [{"molecule": "CC(C)C[C@H](NC(=O)[C@H](Cc1ccccc1)C[C@@H](O)[C@H](Cc1ccccc1)NC(=O)OC(C)(C)C)C(=O)N[C@@H](Cc1ccccc1)C(N)=O", "note": "[L-685,458]", "values": [{"measurement": "N-Cad/CTF2 production", "setting": "[1]", "result": "no N-Cad/CTF2 was detected"}]}, {"molecule": "N-Cad/CTF2: chicken cytoplasmic domain of N-cadherin (N-Cad/CTF2) inserted into vector pECE, expressed in L cells (protein) KRRDKERQAKQLLIDPEDDVRDNILKYDEEGGGEEDQDYDLSQLQQPDTVEPDAIKPVGIRRLDERPIHAEPQYPVRSAAPHPGDIGDFINEGLKAADNDPTAPPYDSLLVFDYEGSGSTAGSLSSLNSSSSGGEQDYDYLNDWGPRFKKLADMYGGGDD", "values": [{"measurement": "formation of a CBP/CREB complex on CRE-containing DNA templates", "setting": "[2]", "result": "defective in their ability to promote formation of a CBP/CREB complex"}, {"measurement": "transactivation by CHOP-response elements", "setting": "[3]", "result": "not affected"}]}]}
